# Laboratory results taken from patent US20190225692A1 (JUNO THERAPEUTICS, published 2019).
# Changes are numbered by the printed parent chain.
# B1: TCR 31 (codon optimized, cysteine modified version) (TCR, V domains shown)
# V domain 1: DQQVKQNSPSLSVQEGRISILNCDYTNSMFDYFLWYKKYPAEGPTFLISISSIKDKNEDGRFTVFLNKSAKHLSLHIVPSQPGDSAVYFCAASERGTYKYIFGTGTRLKVLA
# V domain 2: GAGVSQSPSNKVTEKGKDVELRCDPISGHTALYWYRQSLGQGLEFLIYFQGNSAPDKSGLPSDRFSAERTGGSVSTLTIQRTQQEDSAVYLCASSRFLGSTDTQYFGPGTRLTVLE
# B2: TCR 32 (codon optimized, cysteine modified version) (TCR, V domains shown)
# V domain 1: TQLLEQSPQFLSIQEGENLTVYCNSSSVFSSLQWYRQEPGEGPVLLVTVVTGGEVKKLKRLTFQFGDARKDSSLHITAAQPGDTGLYLCAGGSNYKLTFGKGTLLTVNP
# V domain 2: DSGVTQTPKHLITATGQRVTLRCSPRSGDLSVYWYQQSLDQGLQFLIQYYNGEERAKGNILERFSAQQFPDLHSELNLSSLELGDSALYFCASSVGGDHSDEQFFGPGTRLTVLE
# B3: TCR 43 (codon optimized, cysteine modified version) (TCR, V domains shown)
# V domain 1: QKEVEQNSGPLSVPEGAIASLNCTYSDRGSQSFFWYRQYSGKSPELIMFIYSNGDKEDGRFTAQLNKASQYVSLLIRDSQPSDSATYLCAVNVPTSGTYKYIFGTGTRLKVLA
# V domain 2: EPEVTQTPSHQVTQMGQEVILRCVPISNHLYFYWYRQILGQKVEFLVSFYNNEISEKSEIFDDQFSVERPDGSNFTLKIRSTKLEDSAMYFCASTPRDSYEQYFGPGTRLTVTE
# B4: TCR 33 (codon optimized, cysteine modified version) (TCR, V domains shown)
# V domain 1: B3 V domain 1 with V93A, P94H, T95H, S96T, T98G, Y99F, Y101T, T105A, K110F, L112K
# V domain 2: B3 V domain 2 with S99T
# B5: TCR 49 (codon optimized, cysteine modified version) (TCR, V domains shown)
# V domain 1: B3 V domain 1 with V93I, P94G
# V domain 2: B3 V domain 2 with D98Y
# B6: TCR 34 (codon optimized, cysteine modified version) (TCR, V domains shown)
# V domain 1: ELKVEQNPLFLSMQEGKNYTIYCNYSTTSDRLYWYRQDPGKSLESLFVLLSNGAVKQEGRLMASLDTKARLSTLHITAAVHDLSATYFCAVSGTYKYIFGTGTRLKVLA
# V domain 2: ETGVTQSPTHLIKTRGQQVTLRCSSQSGHNTVSWYQQALGQGPQFIFQYYREEENGRGNFPPRFSGLQFPNYSSELNVNALELDDSALYLCASSSYAGSYEQYFGPGTRLTVTE
# B7: TCR 35 (codon optimized, cysteine modified version) (TCR, V domains shown)
# V domain 1: KDQVFQPSTVASSEGAVVEIFCNHSVSNAYNFFWYLHFPGCAPRLLVKGSKPSQQGRYNMTYERFSSSLLILQVREADAAVYYCAVAGDYKLSFGAGTTVTVRA
# V domain 2: DSGVTQTPKHLITATGQRVTLRCSPRSGDLSVYWYQQSLDQGLQFLIQYYNGEERAKGNILERFSAQQFPDLHSELNLSSLELGDSALYFCASTTSGDSSYNEQFFGPGTRLTVLE
# B8: TCR 36 (codon optimized, cysteine modified version) (TCR, V domains shown)
# V domain 1: RKEVEQDPGPFNVPEGATVAFNCTYSNSASQSFFWYRQDCRKEPKLLMSVYSSGNEDGRFTAQLNRASQYISLLIRDSKLSDSATYLCVVNRDNYGQNFVFGPGTRLSVLP
# V domain 2: B3 V domain 2 with S94M, P96G, D98S, S99N
# B9: TCR 37 (codon optimized, cysteine modified version) (TCR, V domains shown)
# V domain 1: ELKVEQNPLFLSMQEGKNYTIYCNYSTTSDRLYWYRQDPGKSLESLFVLLSNGAVKQEGRLMASLDTKARLSTLHITAAVHDLSATYFCAGYSGAGSYQLTFGKGTKLSVIP
# V domain 2: GAGVSQSPRYKVAKRGQDVALRCDPISGHVSLFWYQQALGQGPEFLTYFQNEAQLDKSGLPSDRFFAERPEGSVSTLKIQRTQQEDSAVYLCASSLLLGAYGYTFGSGTRLTVVE
# B10: TCR 39 (codon optimized, cysteine modified version) (TCR, V domains shown)
# V domain 1: GQQLNQSPQSMFIQEGEDVSMNCTSSSIFNTWLWYKQEPGEGPVLLIALYKAGELTSNGRLTAQFGITRKDSFLNISASIPSDVGIYFCAGYSSSNDYKLSFGAGTTVTVRA
# V domain 2: EPEVTQTPSHQVTQMGQEVILRCVPISNHLYFYWYRQILGQKVEFLVSFYNNEISEKSEIFDDQFSVERPDGSNFTLKIRSTKLEDSAMYFCASTPRDRGKEAFFGQGTRLTVVE
# B11: TCR 40 (codon optimized, cysteine modified version) (TCR, V domains shown)
# V domain 1: GQQVMQIPQYQHVQEGEDFTTYCNSSTTLSNIQWYKQRPGGHPVFLIQLVKSGEVKKQKRLTFQFGEAKKNSSLHITATQTTDVGTYFCAGRNNFNKFYFGSGTKLNVKP
# V domain 2: B3 V domain 2 with S94I, P96A, D98S
# B12: TCR 42 (codon optimized, cysteine modified version) (TCR, V domains shown)
# V domain 1: B11 V domain 1 with R92P, N93D
# V domain 2: B3 V domain 2 with S94K, P96S, D98S
# B13: TCR 41 (codon optimized, cysteine modified version) (TCR, V domains shown)
# V domain 1: RKEVEQDPGPFNVPEGATVAFNCTYSNSASQSFFWYRQDCRKEPKLLMSVYSSGNEDGRFTAQLNRASQYISLLIRDSKLSDSATYLCVVTFALTGGFKTIFGAGTRLFVKA
# V domain 2: EPEVTQTPSHQVTQMGQEVILRCVPISNHLYFYWYRQILGQKVEFLVSFYNNEISEKSEIFDDQFSVERPDGSNFTLKIRSTKLEDSAMYFCASNPRDRVSYEQYFGPGTRLTVTE
# B14: TCR 44 (codon optimized, cysteine modified version) (TCR, V domains shown)
# V domain 1: GQNIDQPTEMTATEGAIVQINCTYQTSGFNGLFWYQQHAGEAPTFLSYNVLDGLEEKGRFSSFLSRSKGYSYLLLKELQMKDSASYLCAQYSGGYQKVTFGTGTKLQVIP
# V domain 2: DSGVTQTPKHLITATGQRVTLRCSPRSGDLSVYWYQQSLDQGLQFLIQYYNGEERAKGNILERFSAQQFPDLHSELNLSSLELGDSALYFCASSGTPDTQYFGPGTRLTVLE
# B15: TCR 45 (codon optimized, cysteine modified version) (TCR, V domains shown)
# V domain 1: GQQVMQIPQYQHVQEGEDFTTYCNSSTTLSNIQWYKQRPGGHPVFLIQLVKSGEVKKQKRLTFQFGEAKKNSSLHITATQTTDVGTYFCAGSSGAGSYQLTFGKGTKLSVIP
# V domain 2: GAGVSQSPSNKVTEKGKDVELRCDPISGHTALYWYRQRLGQGLEFLIYFQGNSAPDKSGLPSDRFSAERTGESVSTLTIQRTQQEDSAVYLCASSLYLGTTGELFFGEGSRLTVLE
# B16: TCR 46 (codon optimized, cysteine modified version) (TCR, V domains shown)
# V domain 1: AQSVTQLDSQVPVFEEAPVELRCNYSSSVSVYLFWYVQYPNQGLQLLLKYLSGSTLVKGINGFEAEFNKSQTSFHLRKPSVHISDTAEYFCAVSPSSGTYKYIFGTGTRLKVLA
# V domain 2: GAGVSQTPSNKVTEKGKYVELRCDPISGHTALYWYRQSLGQGPEFLIYFQGTGAADDSGLPNDRFFAVRPEGSVSTLKIQRTERGDSAVYLCASSLYLGGSETQYFGPGTRLLVLE
# B17: TCR 47 (codon optimized, cysteine modified version) (TCR, V domains shown)
# V domain 1: QKEVEQNSGPLSVPEGAIASLNCTYSDRGSQSFFWYRQYSGKSPELIMFIYSNGDKEDGRFTAQLNKASQYVSLLIRDSQPSDSATYLCAVNLLSGSARQLTFGSGTQLTVLP
# V domain 2: B3 V domain 2 with S94M, P96G, D98T, S99T
# B18: TCR 48 (codon optimized, cysteine modified version) (TCR, V domains shown)
# V domain 1: QKEVEQDPGPLSVPEGAIVSLNCTYSNSAFQYFMWYRQYSRKGPELLMYTYSSGNKEDGRFTAQVDKSSKYISLFIRDSQPSDSATYLCAMRIQGAQKLVFGQGTRLTINP
# V domain 2: B3 V domain 2 with P96G, D98V
# B19: TCR 50 (codon optimized, cysteine modified version) (TCR, V domains shown)
# V domain 1: GEDVEQSLFLSVREGDSSVINCTYTDSSSTYLYWYKQEPGAGLQLLTYIFSNMDMKQDQRLTVLLNKKDKHLSLRIADTQTGDSAIYFCAESPPGTYKYIFGTGTRLKVLA
# V domain 2: DSGVTQTPKHLITATGQRVTLRCSPRSGDLSVYWYQQSLDQGLQFLIHYYNGEERAKGNILERFSAQQFPDLHSELNLSSLELGDSALYFCASSATRDAYGYTFGSGTRLTVVE
# Target: T1, HLA-A2/E7 (11-19) tetramer (human; HPV 16)
# T1 construct: also called E7(11-19) peptide-MHC tetramer; E7 (11-19)-loaded tetramer
# Experiment: tetramer flow cytometry; transfected 1:1 CD4+ and CD4+/CD8+ Jurkat-derived cells;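 note: cells transiently transfected with TCR plasmids, stained 48 h later with HLA-A*02:01 peptide-MHC tetramer plus anti-CD8 antibody, read by flow cytometry to assess CD8-independent tetramer binding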
# Procedure: For transfection, the CD4+ and CD4+/CD8+ cell mixtures were transiently transfected with TCR-encoding plasmids and 48 hours after transfection, cells were assessed by flow cytometry for (1) binding of the target peptide in the context of an MHC molecule (HLA:A02:01) by staining with an E6(29-38) peptide- or an E7(11-19) peptide-MHC tetramer reagent, and/or (2) CD8+ independent binding of the target by co-staining the tetramer-labeled cells with an anti-CD8 antibody.
Binder,% cells in E7 tet+/CD8+ quadrant,% cells in E7 tet+/CD8- quadrant,% cells in E7 tet-/CD8+ quadrant,% cells in E7 tet-/CD8- quadrant
B1,4.52%,0.042%,21.1%,74.3%
B2,25.3%,33.5%,7.53%,33.7%
B3,3.82%,1.88%,37.6%,56.7%
B4,22.6%,14%,12.8%,50.6%
B5,5.54%,3.06%,27.2%,64.3%
B6,26.3%,26%,6.85%,40.9%
B7,14.5%,7.18%,35.1%,43.2%
B8,23.4%,16.7%,25.4%,34.5%
B9,25.5%,19.5%,22.7%,32.2%
B10,12.3%,2.61%,37%,48%
B11,7.84%,1.37%,42.4%,48.4%
B12,1.21%,1.65%,39.5%,57.4%
B13,6.07%,2.41%,43.6%,47.9%
B14,2.96%,1.43%,39.9%,55.7%
B15,22.4%,16.9%,19.5%,41.3%
B16,1.27%,1.21%,38.9%,58.6%
B17,1.98%,0.71%,40.6%,56.7%
B18,5.36%,1.29%,37%,56.4%
B19,3.28%,0.25%,30.7%,65.8%
